Experimental data: article PMC4239610, “A Peptide Derived from G0/G1 Switch Gene 2 Acts as Noncompetitive Inhibitor of Adipose Triglyceride Lipase” (The Journal of Biological Chemistry, 2014)

Tests used:
mATGL [1] = test: TG hydrolase activity, E. coli expressed mATGL, CGI-58 activated, hG0S2 truncations (Fig. 1C-E); assay type: biochemical, mouse; details: mATGL E. coli extract (50 μg), 2.5 μg purified mCGI-58, 30 μg lysate of E. coli expressing hG0S2 variant, [3H]triolein, triplicates
Experimental: Protein concentrations were determined as described below.
FIGURE 1. Minimal sequence requirements of human G0S2 for ATGL inhibition. A, graphical representation of full-length and shortened versions of hG0S2, those capable of inhibiting ATGL activity are illustrated in black. The largely hydrophobic sequence stretch from Val-28 to Met-42 is depicted in light gray. B–E, activity assays were performed in the presence of CGI-58 as indicated by an asterisk (ATGL*). G0S2 and variants thereof were expressed in E. coli and added as cell lysates. Overexpressed mATGL from E. coli lysates was used for all assays with the exception of the assay shown in B. B, inhibition of TG hydrolase activity of mATGL containing COS-7 cell extracts by WT and C-terminally truncated hG0S2 variants. C, inhibition of TG hydrolase activity of mATGL by WT and C-terminally truncated hG0S2 variants. D, inhibition of TG hydrolase activity of mATGL by WT hG0S2 and variants with N-terminal deletions. E, effect of different N- and C-terminal truncations in hG0S2 on mATGL activity. The fusion tag smt3 is shown as control.

ATGL [2] = details: cited from earlier work
Source text: Extensive research on the physiological role of ATGL has identified complex regulatory mechanisms for its activity on the transcriptional and post-translational level ([12], [13]). Direct protein-protein interaction of ATGL with the protein comparative gene identification 58 (CGI-58) increases ATGL activity up to 20-fold ([14]). Inhibition of ATGL due to direct interaction with the small, 103-amino acid protein G0/G1 switch gene 2 (G0S2) was discovered in 2010 and confirmed using human and murine proteins ([15][–][21]). The highest G0S2 expression is found in adipose tissues, but it is also pr ... || Activation of ATGL by CGI-58 is considered as fasting response upon β-adrenergic stimulation and phosphorylation of PKA ([12]). Recent studies have strengthened the role of G0S2 as the so-called master regulator of basal and stimulated lipolysis ([27]). mRNA levels of G0S2 respond strongly to hormonal stimuli, yet the dose-dependent inhibition of ATGL by G0S2 itself is reported to be independent of phosphorylation events ([18], [20], [21], [28], [29]). Thus, regulation of the expression levels of G0S2, and consequently the protein concentration, resembles a potent mean to regulate lipid mobili ... || Next, we investigated the specificity of the peptide hGW2052. ATGL and HSL together account for more than 95% of intracellular TG hydrolase activity in white adipose tissue (WAT) ([48]). […]

ATGL [3] = details: cited from earlier work; remark: listed apart in the source
Source text: Activation of ATGL by CGI-58 is considered as fasting response upon β-adrenergic stimulation and phosphorylation of PKA ([12]). Recent studies have strengthened the role of G0S2 as the so-called master regulator of basal and stimulated lipolysis ([27]). mRNA levels of G0S2 respond strongly to hormonal stimuli, yet the dose-dependent inhibition of ATGL by G0S2 itself is reported to be independent of phosphorylation events ([18], [20], [21], [28], [29]). Thus, regulation of the expression levels of G0S2, and consequently the protein concentration, resembles a potent mean to regulate lipid mobili ... || Structural knowledge on ATGL is very limited. It is predicted to exert lipolytic activity via a catalytic dyad that resides in the patatin domain within the N-terminal half of the lipase ([7], [50]). […] In contrast, Atglis ...

mATGL [4] = target: mATGL (Mus musculus, UniProt Q8BJ56); test: TG hydrolase activity of CGI-58-stimulated mATGL (mATGL*) expressed in E. coli; details: read-out: half-maximal inhibitory concentration (IC50), CGI-58-stimulated ATGL; mATGL from E. coli (25 μg lysate protein) with 2.5 μg mCGI-58; [3H]triolein substrate; triplicates; Fig. 2E (hGW2052), 2F (WT hG0S2)
mATGL (Mus musculus, UniProt Q8BJ56), sequence (Q8BJ56 whole entry): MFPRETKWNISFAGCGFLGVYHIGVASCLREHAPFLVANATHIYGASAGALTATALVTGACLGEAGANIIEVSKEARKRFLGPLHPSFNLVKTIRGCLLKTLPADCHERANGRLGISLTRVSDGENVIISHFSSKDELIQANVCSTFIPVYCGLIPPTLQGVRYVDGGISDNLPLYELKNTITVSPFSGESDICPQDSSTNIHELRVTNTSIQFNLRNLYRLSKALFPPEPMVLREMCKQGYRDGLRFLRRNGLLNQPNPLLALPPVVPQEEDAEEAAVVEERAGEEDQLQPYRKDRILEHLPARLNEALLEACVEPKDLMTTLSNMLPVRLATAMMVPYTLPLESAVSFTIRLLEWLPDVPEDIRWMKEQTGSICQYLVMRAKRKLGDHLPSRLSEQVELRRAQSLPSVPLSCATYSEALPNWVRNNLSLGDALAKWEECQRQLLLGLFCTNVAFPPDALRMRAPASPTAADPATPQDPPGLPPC
mATGL (Mus musculus, UniProt Q8BJ56), sequence (Q9DBL9 whole entry partner): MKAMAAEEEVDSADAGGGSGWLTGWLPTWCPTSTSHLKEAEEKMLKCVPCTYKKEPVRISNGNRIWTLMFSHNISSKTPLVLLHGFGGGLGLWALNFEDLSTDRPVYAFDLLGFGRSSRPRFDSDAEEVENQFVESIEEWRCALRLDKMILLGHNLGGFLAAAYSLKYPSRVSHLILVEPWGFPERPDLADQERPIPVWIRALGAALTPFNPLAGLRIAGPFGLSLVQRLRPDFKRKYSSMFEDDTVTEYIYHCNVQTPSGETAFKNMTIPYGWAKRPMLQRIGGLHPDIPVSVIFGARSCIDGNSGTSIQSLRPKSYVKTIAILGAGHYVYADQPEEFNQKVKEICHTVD
Experimental: The peptides were dissolved in 100% DMSO, and concentrations were determined via the absorbance at 280 nm. The final DMSO concentration in the activity assay was ≤1%. The control peptide was prepared the same way.
TG hydrolase activity assay was performed as described ([45]). To screen for the inhibitory capacity of various hG0S2 truncations, 30 μg of protein of cell lysates were incubated with the [^3H]triolein substrate together with 50 μg of cell extract of Strep-mATGL (or COS-7-mATGL) and 2.5 μg of purified mCGI-58. As a control, lysates of the His6-Smt tag were incubated under the same conditions. […] TG substrate was prepared with 1.67 mM triolein, 10 μCi/ml [9,10-^3H]triolein (PerkinElmer Life Sciences), and 190 μM phosphatidylcholine/phosphatidylinositol (3:1) (Sigma) and diluted to the respective concentrations after sonication. Assays with CGI-58 co-activated ATGL were performed on a smaller scale. […] Lysates using LacZ-expressing cells were used as controls. The reaction was terminated by adding 650 μl of methanol/chloroform/heptane (10:9:7) and 200 μl of 100 mM potassium carbonate buffer, pH 10.5 (adjusted with boric acid). The radioactivity in 200 μl of the upper phase (450 μl in total) was determined by liquid scintillation counting.

B1: G0S2 truncated after residue Gly-30: Truncation of G0S2 after residue Gly-30 (N-terminal) (protein, UniProt P27469 30-103, looked up, fragment)
chain: GSVLALFGVVLGLMETVCSPFTAARRLRDQEAAVAELQAALERQALQKQALQEKGKQQDTVLGGRALSNRQHAS
inhibition of TG hydrolase activity (result in words) (mATGL [1]): complete loss of the capacity to inhibit ATGL

B2: hG0S2_27–103: N-terminally truncated hG0S2 until residue Tyr-27 (protein, UniProt P27469 27-103, looked up, fragment)
chain: YVLGSVLALFGVVLGLMETVCSPFTAARRLRDQEAAVAELQAALERQALQKQALQEKGKQQDTVLGGRALSNRQHAS
inhibition of TG hydrolase activity (result in words) (mATGL [1]): fully inhibit ATGL activity
inhibition of TG hydrolase activity (result in words) (mATGL [1]; listed as Tyr-27–Ser-103): fully able to inhibit ATGL

B3: CGI-58: comparative gene identification 58, protein co-activator of ATGL (protein, UniProt Q8WTS1 2-349, looked up)
1-acylglycerol-3-phosphate …: AAEEEEVDSADTGERSGWLTGWLPTWCPTSISHLKEAEEKMLKCVPCTYKKEPVRISNGNKIWTLKFSHNISNKTPLVLLHGFGGGLGLWALNFGDLCTNRPVYAFDLLGFGRSSRPRFDSDAEEVENQFVESIEEWRCALGLDKMILLGHNLGGFLAAAYSLKYPSRVNHLILVEPWGFPERPDLADQDRPIPVWIRALGAALTPFNPLAGLRIAGPFGLSLVQRLRPDFKRKYSSMFEDDTVTEYIYHCNVQTPSGETAFKNMTIPYGWAKRPMLQRIGKMHPDIPVSVIFGARSCIDGNSGTSIQSLRPHSYVKTIAILGAGHYVYADQPEEFNQKVKEICDTVD
increase of ATGL activity (ATGL [2]; direct protein-protein interaction with ATGL, ref [14]): up to 20 fold

B4: hG0S2: full-length human G0S2, 103-amino acid protein, expressed in E. coli (protein)
chain: METVQELIPLAKEMMAQKRKGKMVKLYVLGSVLALFGVVLGLMETVCSPFTAARRLRDQEAAVAELQAALERQALQKQALQEKGKQQDTVLGGRALSNRQHAS
modifications: left off: His6, N-terminal, cleaved | Smt, N-terminal, cleaved
notes: full-length human G0S2, 103-amino acid protein, expressed in E. coli
site of interaction with ATGL (ATGL [3]; ref [15]): interacts with the N-terminal catalytic domain of ATGL
IC50 (mATGL [4]): 19 nM

B5: G0S2 Met-1–Gln-73: truncated variant of G0S2 encompassing the residues Met-1–Gln-73 (protein, UniProt P27469 1-73, looked up, fragment)
chain: METVQELIPLAKEMMAQKRKGKMVKLYVLGSVLALFGVVLGLMETVCSPFTAARRLRDQEAAVAELQAALERQ
interaction with ATGL (ATGL [3]; ref [20]): interacts with ATGL
inhibition of ATGL (in words) (ATGL [2]; truncated/deleted G0S2 variants, ref [20]): inhibits the enzyme
